Source: patent US20250011869A1, “TLR3 INHIBITORS FOR USE IN THE TREATMENT OF DISEASES ASSOCIATED WITH CARDIOVASCULAR CALCIFICATION” (priority 2021, published 2025)

Legend:
[1] = target: T1, human TLR3 ectodomain (huTLR3-ECD) (Homo sapiens, UniProt O15455); assay: In vitro binding by co-immunoprecipitation; conditions: purified TLR3 ectodomain and purified BGN
T1 construct: The human TLR3-ECD (27-700) was modified with an N-terminal gb67 leader and a C-terminal 6× poly histidine tag; gb67 (gp67) secretion leader (N); 6xHis (C); made in house; host or cells: Sf21 insect cells (baculovirus, pFastBac1, Bac-to-Bac)
Description: The human TLR3-ECD (27-700) was modified with an N-terminal gb67 leader and a C-terminal 6× poly histidine tag and the sequence was produced synthetically (Geneart) and cloned into a pFastBac1 vector. The virus was generated and amplified at large scale levels using a Sf21 insect cell-line (Bac-to-Bac®). One liter Sf21 cell culture was infected and harvested at 72 hours. The culture was centrifuged at 1000×g for 30 min and the supernatant was filtered through a 0.2 μm nitrocellulose membrane. The filtrate was loaded onto a 5 ml His Trap EXCEL column (GE, 17-3712-06) using a peristaltic pump. […] The protein fractions were analyzed by SDS-PAGE and TLR3 containing fractions were pooled and concentrated to a final volume of ˜500 μl using a spin concentrator (Vivaspin®20) with a 10 kDa molecular weight cut-off. […] TLR3 containing fractions were analyzed by SDS-PAGE and pooled and concentrated to 1 mg/ml. Protein concentration was estimated using a Nano Drop by measuring the absorbance at 280 nm (MW=[…], ε=61.9 mol^−1 cm^−1).
The human BGN (38-368) was modified with an N-terminal Secrecon tag followed by a 6× poly histidine tag and a Strep-Tag II. […] The protein fractions were analyzed by SDS-PAGE and BGN containing fractions were pooled and concentrated to a final volume of ˜500 μl using a spin concentrator (Vivaspin®20) with a 10 kDa molecular weight cut-off. […]

[2] = target: T1, human TLR3 ectodomain (huTLR3-ECD); assay: In vitro binding by size exclusion chromatography and immunoblot; conditions: chondroitinase ABC digested BGN incubated with TLR3 ECD

B1: BGN: proteoglycan biglycan (BGN), a structural protein of the extracellular matrix (ECM) (protein)
chain: DEEASGAETTSGIPDLDSLPPTYSAMCPFGCHCHLRVVQCSDLGLKAVPKEISPDTTLLDLQNNDISELRKDDFKGLQHLYALVLVNNKISKIHEKAFSPLRKLQKLYISKNHLVEIPPNLPSSLVELRIHDNRIRKVPKGVFSGLRNMNCIEMGGNPLENSGFEPGAFDGLKLNYLRISEAKLTGIPKDLPETLNELHLDHNKIQAIELEDLLRYSKLYRLGLGHNQIRMIENGSLSFLPTLRELHLDNNKLSRVPAGLPDLKLLQVVYLHTNNITKVGVNDFCPVGFGVKRAYYNGISLFNNPVPYWEVQPATFRCVTDRLAIQFGNYKK
[1]
  interaction with huTLR3-ECD by immunoprecipitation: confirmed this interaction
[2]
  binding to huTLR3-ECD by size-exclusion chromatography followed by immunoblotting: co-elution
[2]; listed as huBGN
  binding to huTLR3-ECD by size-exclusion chromatography followed by immunoblotting: weak binding interaction
